Columns and labels:
[1] = biological target: T1, Transmembrane activator and CAML interactor (TACI) on cells (UniProt O14836 1-293, limits assumed); experiment: flow cytometry on JVM2 cells (endogenous TACI)
T1 construct: whole, on cells; also called tumor necrosis factor receptor superfamily member 13B (TNFRSF13B)
T1 sequence (looked up): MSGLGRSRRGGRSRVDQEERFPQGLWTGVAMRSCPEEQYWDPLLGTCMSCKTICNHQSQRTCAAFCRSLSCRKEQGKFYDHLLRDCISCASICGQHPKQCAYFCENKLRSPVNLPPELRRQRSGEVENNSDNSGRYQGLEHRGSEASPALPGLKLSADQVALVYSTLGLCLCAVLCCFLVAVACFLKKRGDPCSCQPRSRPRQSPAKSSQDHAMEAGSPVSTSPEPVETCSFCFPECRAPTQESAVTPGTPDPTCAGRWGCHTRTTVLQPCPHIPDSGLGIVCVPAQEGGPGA
Procedure: (§1) Cells were spun down at 1200 rpm for 6 minutes at 4° C. to remove primary antibodies. Cells were then washed once with 200 μL of full medium per well. Samples were detected with premixed anti-His Biotin Streptavidin Alexa fluor 647 by adding 100 μL of diluted secondary antibody and incubated at 4° C. for 30 minutes in the dark. Samples were spun down at 1200 rpm for 5 minutes at 4° C. and washed twice with 200 μL of 1×PBS per well. Reconstituted samples in 200 μL of 1×PBS and read on Attune NxT cytometer. Analysis was done by Attune NxT software plotting the overlaying the histogram of anti-BCMA scFvs binding onto both negative and target cell lines. […] The BCMA cell binding affinity for exemplary anti-BCMA antibodies (in scFv format) was also generated with serial diluted scFvs as described above.
(§2) Anti-TACI scFv binders have been identified through Anti-TACI supernatant FACS screening assay with JVM2, MM1.R and RPMI8226 cell lines as described in above supernatant FACS screening assay. 200 nM of purified scFvs were subjected into FACS binding assay with TACI negative cell lines K562, H929 and TACI expressing cancer cell lines of JVM2, MM1.R, RPMI8226. The assay procedure and data analysis were described in Example 1 above.

soluble recombinant TACI = biological target: T2, soluble recombinant TACI (UniProt O14836 1-165, limits assumed); experiment: ELISA, recombinant TACI immobilized on 384 well plate
T2 construct: Immobilized on a 384 well plate; construct not described
T2 sequence (looked up): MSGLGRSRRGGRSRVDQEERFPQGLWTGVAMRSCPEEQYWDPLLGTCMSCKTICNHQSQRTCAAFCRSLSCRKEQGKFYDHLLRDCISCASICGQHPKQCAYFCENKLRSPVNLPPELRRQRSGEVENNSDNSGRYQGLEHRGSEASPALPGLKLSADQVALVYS
Procedure: Purified anti-TACI scFvs were subjected to ELISA binding assay. Recombinant TACI and negative protein were immobilized on the 384 well plate. 200 nM of anti-TACI scFv clones were serial diluted and tested for binding in the assay as described above.

[2] = biological target: T1, Transmembrane activator and CAML …; experiment: flow cytometry on MM1S cells (endogenous TACI)
[3] = biological target: T1, Transmembrane activator and CAML …; experiment: flow cytometry on RPMI8226 cells (endogenous TACI)
Procedure: as §1, §2

[4] = biological target: T1, Transmembrane activator and CAML …; experiment: flow cytometry on MM1R cells (endogenous TACI)
Procedure: as §1, §2

B1: TC-03 (anti-TACI antibody in scFv format) (scFv, not shown: small tags and cut ends)
scFv: EVQLVESGGGLVQPGGSLRLSCATSGFTVNSDYMSWVRQSPEKGLEWVSFIYRGGSTYYADSVKGRFTVSRDTSKNTLYLQMNSLRVEDTAVYYCARGLGSSSDYWGQGTLVTVSSGGGGSGGGGSGGGGSSYELTQPHSVSESPGKTVTISCTRSSGSIANNYVQWYRHRPGSAPSTVIFEDDHRPSEVPDRFSGSIDSSSNSASLTISGLKTEDEADYYCQSYDGIDHYVFGTGTKLTVL
notes: Human scFv from mRNA display (live cell selections), VH-(G4S)3-VL
- EC50 [1]: 0.0268 µM
- binding result (soluble recombinant TACI): no binding (tested: 200 nM, serial diluted)
- EC50 [2]: 0.0467 µM
- EC50 [3]: 0.83 µM
- EC50 [4]: 0.014 µM

Source: patent publication US20260097076A1 (ELPIS BIOPHARMACEUTICALS, published 2026)
